From US20090029924A1

Each substance was assayed against Recombinant human furin (human) (UniProt P09958) (assay: furin, Pyr-RTKR-AMC cleavage).
Recombinant human furin (human), sequence (P09958 108-714 limits assumed): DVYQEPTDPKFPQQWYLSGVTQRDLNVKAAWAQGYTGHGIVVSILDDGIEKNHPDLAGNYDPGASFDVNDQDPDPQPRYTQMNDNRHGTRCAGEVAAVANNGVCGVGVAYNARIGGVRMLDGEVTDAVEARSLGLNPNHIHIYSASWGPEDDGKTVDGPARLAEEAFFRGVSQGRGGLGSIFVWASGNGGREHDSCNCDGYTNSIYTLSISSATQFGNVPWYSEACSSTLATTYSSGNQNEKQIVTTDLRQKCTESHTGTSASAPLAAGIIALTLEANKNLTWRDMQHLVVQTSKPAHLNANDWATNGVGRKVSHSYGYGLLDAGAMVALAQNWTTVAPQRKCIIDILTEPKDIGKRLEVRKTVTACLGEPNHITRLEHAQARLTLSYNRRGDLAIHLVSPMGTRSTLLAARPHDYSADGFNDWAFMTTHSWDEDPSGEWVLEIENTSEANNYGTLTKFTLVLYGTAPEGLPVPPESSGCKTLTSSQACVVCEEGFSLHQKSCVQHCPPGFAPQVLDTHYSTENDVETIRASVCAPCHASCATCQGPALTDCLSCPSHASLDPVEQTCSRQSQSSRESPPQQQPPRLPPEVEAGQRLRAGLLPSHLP
For TPQR1RRRKKRG (peptide), the Ki was greater than 100 nM.
In the case of TPQR2RRRKKRG (peptide), the Ki is reported as greater than 100 nM.
For TPQR3RRRKKRG (peptide), the Ki was greater than 100 nM.
TPQR4RRRKKRG (peptide) was tested, and the Ki was greater than 100 nM.
TPQR5RRRKKRG (peptide) was tested, and the Ki was greater than 100 nM.
TPQR6RRRKKRG (peptide) was tested, and the Ki was greater than 100 nM.
For TPQR7RRRKKRG (peptide), the Ki was greater than 100 nM.
TPQR8RRRKKRG (peptide) gave a Ki greater than 100 nM.
TPQReRRRKKRG (peptide) was tested, and the Ki was greater than 100 nM.
For TPQRkRRRKKRG (peptide), the Ki was greater than 100 nM.
In the case of TPQRrRRRKKRG (peptide), the Ki is reported as greater than 100 nM.
